According to patent US7393670B2, “Tyrosyl-tRNA synthetase variants” (Japan Science and Technology Agency, priority 2001, dated 2008):

Columns and labels:
Format in all cases: biochemical
[1] = Aminoacylation reaction, simplified Lloyd's method, inorganic phosphate detected with Biomol green; design: key: ***: the aminoacylation reaction was detected by a microplate reader in the reaction at enzyme concentrations of 50 nM; **: 500 nM; *: 5 μM; the activity is high in the order of *** > ** > * > —; conditions: tyrosine 200 μM, 37° C. for 4 min
Description: (§1) In the first method, Lloyd's method (Nucleic Acids Research, 23:2886-2892, 1995) where inorganic phosphate produced by pyrophosphatase-drived hydrolysis of pyrophosphate which was one of the reaction products of the aminoacylation reactions was quantified was simplified, and the inorganic phosphate was detected using Biomol green (Funakoshi) to carry out the measurement of the aminoacylation reaction.
(§2) Amino acid concentrations were 200 μM and 1 mM for tyrosine and 3-iodotyrosine, respectively.
(§3) The method where the aminoacylation reaction is measured by quantifying inorganic phosphate produced by pyrophosphatase-drived hydrolysis of pyrophosphate which is one of reaction products of the aminoacylation has been described by Lloyd et al. (Nucleic Acids Research, 23:2886-2892, 1995). In one method of the invention, this method was simplified and the aminoacylation reaction was measured by the detection of inorganic phosphate using Biomol green (Funakoshi). […] To stop the reaction, 0.1 ml of Bio mol green was added. Absorbance of its supernatant was measured at 630 nm.

[2] = as above; design: key: ***: the aminoacylation reaction was detected by a microplate reader in the reaction at enzyme concentrations of 50 nM; **: 500 nM; *: 5 μM; the activity is high in the order of *** > ** > * > —; conditions: 3-iodotyrosine 1 mM, 37° C. for 4 min
Description: as §1, §2
The method where the aminoacylation reaction is measured by quantifying inorganic phosphate produced by pyrophosphatase-drived hydrolysis of pyrophosphate which is one of reaction products of the aminoacylation has been described by Lloyd et al. (Nucleic Acids Research, 23:2886-2892, 1995). In one method of the invention, this method was simplified and the aminoacylation reaction was measured by the detection of inorganic phosphate using Biomol green (Funakoshi). Each enzyme obtained was incubated with 0.05 ml of the buffer B containing 1 mM ATP (Seikagaku Corporation), 30 μM purified crude tyrosyl-tRNA, and 100 μM tyrosine or 0.5 mM 3-iodotyrosine at 37° C. for one hour. To stop the reaction, 0.1 ml of Bio mol green was added. Absorbance of its supernatant was measured at 630 nm.

[3] = Aminoacylation activity by Lloyd's method (release of pyrophosphates); conditions: at 37° C.
Description: In the second method, Lloyd's method (Nucleic Acids Research, 23:2886-2892, 1995) was carried out without alteration.
In the second method, the activity was assayed by Lloyd's method (Nucleic Acids Research, 23:2886-2892, 1995). Each enzyme obtained was incubated with 0.4 ml of the buffer B containing 1 mM ATP (Seikagaku Corporation), 100 μM purified crude tyrosyl-tRNA, 200 μM tyrosine or 3-iodotyrosine at 37° C. for 6 min. The aminoacylation activity was represented as concentrations of released phosphate per min.

[4] = Aminoacylation reaction, simplified Lloyd's method, inorganic phosphate detected with Biomol green; design: key: ***: the reaction could be detected strongly at 25 nM; **: strongly at 250 nM; *: weakly at 250 nM; the activity is high in the order of *** > ** > * > —; conditions: Table 3; tyrosine 200 μM; 37° C. for 4 min
Description: as §1, §2, §3

Row | Molecule | Aminoacylation activity, Tyrosine ([1]; Table 3) | Aminoacylation activity, 3-iodotyrosine ([2]; Table 3) | other results
1 | 37A: E. coli TyrRS variant: position 37 Alanine, position 195 Glutamine (protein, UniProt P0AGJ9 2-424, looked up, variant Y37A) Tyrosine--tRNA ligase: ASSNLIKQLQERGLVAQVTDEEALAERLAQGPIALACGFDPTADSLHLGHLVPLLCLKRFQQAGHKPVALVGGATGLIGDPSFKAAERKLNTEETVQEWVDKIRKQVAPFLDFDCGENSAIAANNYDWFGNMNVLTFLRDIGKHFSVNQMINKEAVKQRLNREDQGISFTEFSYNLLQGYDFACLNKQYGVVLQIGGSDQWGNITSGIDLTRRLHQNQVFGLTVPLITKADGTKFGKTEGGAVWLDPKKTSPYKFYQFWINTADADVYRFLKFFTFMSIEEINALEEEDKNSGKAPRAQYVLAEQVTRLVHGEEGLQAAKRITECLFSGSLSALSEADFEQLAQDGVPMVEMEKGADLMQALVDSELQPSRGQARKTIASNAITINGEKQSDPEYFFKEEDRLFGRFTLLRRGKKNYCLICWK |  |  | Aminoacylation activity, Tyrosine ([1]; Table 2): ***; Aminoacylation activity, 3-iodotyrosine ([2]; Table 2): ***; Initial velocity of release of pyrophosphates, 3-iodotyrosine ([3]; 200 μM 3-iodotyrosine): 12 nM PPi/min/nM enzyme; Initial velocity of release of pyrophosphates, Tyrosine ([3]; 200 μM tyrosine): 51 nM PPi/min/nM enzyme
2 | AN: E. coli TyrRS double variant: position 37 Alanine, position 195 Asparagine (protein, UniProt P0AGJ9 2-424, looked up, variant Y37A Q195N) Tyrosine--tRNA ligase: ASSNLIKQLQERGLVAQVTDEEALAERLAQGPIALACGFDPTADSLHLGHLVPLLCLKRFQQAGHKPVALVGGATGLIGDPSFKAAERKLNTEETVQEWVDKIRKQVAPFLDFDCGENSAIAANNYDWFGNMNVLTFLRDIGKHFSVNQMINKEAVKQRLNREDQGISFTEFSYNLLQGYDFACLNKQYGVVLNIGGSDQWGNITSGIDLTRRLHQNQVFGLTVPLITKADGTKFGKTEGGAVWLDPKKTSPYKFYQFWINTADADVYRFLKFFTFMSIEEINALEEEDKNSGKAPRAQYVLAEQVTRLVHGEEGLQAAKRITECLFSGSLSALSEADFEQLAQDGVPMVEMEKGADLMQALVDSELQPSRGQARKTIASNAITINGEKQSDPEYFFKEEDRLFGRFTLLRRGKKNYCLICWK | — | — | 
3 | LN: E. coli TyrRS double variant: position 37 Leucine, position 195 Asparagine (protein, UniProt P0AGJ9 2-424, looked up, variant Y37L Q195N) Tyrosine--tRNA ligase: ASSNLIKQLQERGLVAQVTDEEALAERLAQGPIALLCGFDPTADSLHLGHLVPLLCLKRFQQAGHKPVALVGGATGLIGDPSFKAAERKLNTEETVQEWVDKIRKQVAPFLDFDCGENSAIAANNYDWFGNMNVLTFLRDIGKHFSVNQMINKEAVKQRLNREDQGISFTEFSYNLLQGYDFACLNKQYGVVLNIGGSDQWGNITSGIDLTRRLHQNQVFGLTVPLITKADGTKFGKTEGGAVWLDPKKTSPYKFYQFWINTADADVYRFLKFFTFMSIEEINALEEEDKNSGKAPRAQYVLAEQVTRLVHGEEGLQAAKRITECLFSGSLSALSEADFEQLAQDGVPMVEMEKGADLMQALVDSELQPSRGQARKTIASNAITINGEKQSDPEYFFKEEDRLFGRFTLLRRGKKNYCLICWK |  | — | Aminoacylation activity, Tyrosine [4]: *
4 | IC: E. coli TyrRS double variant: position 37 Isoleucine, position 195 Cysteine (protein, UniProt P0AGJ9 2-424, looked up, variant Y37I Q195C) Tyrosine--tRNA ligase: ASSNLIKQLQERGLVAQVTDEEALAERLAQGPIALICGFDPTADSLHLGHLVPLLCLKRFQQAGHKPVALVGGATGLIGDPSFKAAERKLNTEETVQEWVDKIRKQVAPFLDFDCGENSAIAANNYDWFGNMNVLTFLRDIGKHFSVNQMINKEAVKQRLNREDQGISFTEFSYNLLQGYDFACLNKQYGVVLCIGGSDQWGNITSGIDLTRRLHQNQVFGLTVPLITKADGTKFGKTEGGAVWLDPKKTSPYKFYQFWINTADADVYRFLKFFTFMSIEEINALEEEDKNSGKAPRAQYVLAEQVTRLVHGEEGLQAAKRITECLFSGSLSALSEADFEQLAQDGVPMVEMEKGADLMQALVDSELQPSRGQARKTIASNAITINGEKQSDPEYFFKEEDRLFGRFTLLRRGKKNYCLICWK | — | — | 
5 | LA: E. coli TyrRS double variant: position 37 Leucine, position 195 Alanine (protein, UniProt P0AGJ9 2-424, looked up, variant Y37L Q195A) Tyrosine--tRNA ligase: ASSNLIKQLQERGLVAQVTDEEALAERLAQGPIALLCGFDPTADSLHLGHLVPLLCLKRFQQAGHKPVALVGGATGLIGDPSFKAAERKLNTEETVQEWVDKIRKQVAPFLDFDCGENSAIAANNYDWFGNMNVLTFLRDIGKHFSVNQMINKEAVKQRLNREDQGISFTEFSYNLLQGYDFACLNKQYGVVLAIGGSDQWGNITSGIDLTRRLHQNQVFGLTVPLITKADGTKFGKTEGGAVWLDPKKTSPYKFYQFWINTADADVYRFLKFFTFMSIEEINALEEEDKNSGKAPRAQYVLAEQVTRLVHGEEGLQAAKRITECLFSGSLSALSEADFEQLAQDGVPMVEMEKGADLMQALVDSELQPSRGQARKTIASNAITINGEKQSDPEYFFKEEDRLFGRFTLLRRGKKNYCLICWK |  | — | Aminoacylation activity, Tyrosine [4]: *
6 | AA: E. coli TyrRS double variant: position 37 Alanine, position 195 Alanine (protein, UniProt P0AGJ9 2-424, looked up, variant Y37A Q195A) Tyrosine--tRNA ligase: ASSNLIKQLQERGLVAQVTDEEALAERLAQGPIALACGFDPTADSLHLGHLVPLLCLKRFQQAGHKPVALVGGATGLIGDPSFKAAERKLNTEETVQEWVDKIRKQVAPFLDFDCGENSAIAANNYDWFGNMNVLTFLRDIGKHFSVNQMINKEAVKQRLNREDQGISFTEFSYNLLQGYDFACLNKQYGVVLAIGGSDQWGNITSGIDLTRRLHQNQVFGLTVPLITKADGTKFGKTEGGAVWLDPKKTSPYKFYQFWINTADADVYRFLKFFTFMSIEEINALEEEDKNSGKAPRAQYVLAEQVTRLVHGEEGLQAAKRITECLFSGSLSALSEADFEQLAQDGVPMVEMEKGADLMQALVDSELQPSRGQARKTIASNAITINGEKQSDPEYFFKEEDRLFGRFTLLRRGKKNYCLICWK | — | — | 
7 | IN: E. coli TyrRS double variant: position 37 Isoleucine, position 195 Asparagine (protein, UniProt P0AGJ9 2-424, looked up, variant Y37I Q195N) Tyrosine--tRNA ligase: ASSNLIKQLQERGLVAQVTDEEALAERLAQGPIALICGFDPTADSLHLGHLVPLLCLKRFQQAGHKPVALVGGATGLIGDPSFKAAERKLNTEETVQEWVDKIRKQVAPFLDFDCGENSAIAANNYDWFGNMNVLTFLRDIGKHFSVNQMINKEAVKQRLNREDQGISFTEFSYNLLQGYDFACLNKQYGVVLNIGGSDQWGNITSGIDLTRRLHQNQVFGLTVPLITKADGTKFGKTEGGAVWLDPKKTSPYKFYQFWINTADADVYRFLKFFTFMSIEEINALEEEDKNSGKAPRAQYVLAEQVTRLVHGEEGLQAAKRITECLFSGSLSALSEADFEQLAQDGVPMVEMEKGADLMQALVDSELQPSRGQARKTIASNAITINGEKQSDPEYFFKEEDRLFGRFTLLRRGKKNYCLICWK | — | — | 
